Results: PMC9926122

Target: recombinant EB1 (HS-AFM and microtubule experiments) (human) (UniProt Q15691)
Sequence (Q15691 whole entry): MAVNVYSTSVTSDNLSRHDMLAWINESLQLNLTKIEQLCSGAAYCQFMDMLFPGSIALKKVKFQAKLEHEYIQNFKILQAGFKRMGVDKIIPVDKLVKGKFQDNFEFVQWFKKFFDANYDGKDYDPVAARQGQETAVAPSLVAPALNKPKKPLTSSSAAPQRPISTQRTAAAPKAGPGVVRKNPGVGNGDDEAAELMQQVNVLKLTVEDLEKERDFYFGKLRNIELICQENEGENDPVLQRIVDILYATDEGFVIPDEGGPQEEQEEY

6xHis-tagged WT Ska1, sequence (Q96BD8 whole entry): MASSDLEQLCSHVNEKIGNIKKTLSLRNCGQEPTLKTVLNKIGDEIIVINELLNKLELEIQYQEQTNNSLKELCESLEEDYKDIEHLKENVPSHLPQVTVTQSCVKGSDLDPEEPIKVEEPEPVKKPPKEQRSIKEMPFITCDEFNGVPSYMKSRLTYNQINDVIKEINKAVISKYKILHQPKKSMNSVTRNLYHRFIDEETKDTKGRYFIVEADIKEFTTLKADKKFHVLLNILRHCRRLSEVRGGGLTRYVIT

A localization of Ska1 on prepolymerized MTs in vitro in the presence of EB1 (1 uM), fluorescence microscopy: WT Ska1 against Ska1 ΔSHLP (0.5 uM each) of 1.6 fold was found for “6xHis-tagged WT Ska1 (from UniProt Q96BD8 1-255) (natural protein)” in this work.
